Assays:
Assay type in all cases: physicochemical
[1] = Ethanol precipitation of AM1-spiked E. coli cell lysate supernatant containing MBP; AM1 in supernatants and pellets by RP-HPLC
Method: For the precipitation with ethanol the cell lysate supernatant was spiked with chemically synthesized AM1 peptide to a final concentration of 0.286 μg AM1 per μL. AM1 was custom synthesized by Genscript (Piscataway, USA). The purity was >95% by reversed-phase high performance liquid chromatography. The peptide was stored in a lyophilized form and was dissolved in 0.1% v/v TFA prior to use (cAm1=1 mg/mL).
For the ethanol precipitation experiment, 420 μL of AM1 (in 0.1% v/v TFA, 1 μg/μL) was added to 1050 μL of lysate supernatant and mixed by vortexing. The samples were prepared with different ethanol concentrations ranging from 50-75% (v/v).
The samples were incubated on a roller mixer at speed adjustment 7.5 for 17 h. The tubes were centrifuged at 15,000 rpm for 10 min. […] The protein present in the urea dissolved pellets, as well as the supernants was directly analyzed by Bradford and SDS-PAGE.
For quantitative analysis of AM1 peptide in the supernatants and pellets, reversed-phase high performance liquid chromatography (RP-HPLC) was used with an analytical C18 column (Jupiter 00F-4053-E0, Phenomenex, UK). […]
The retention time of AM1 at the above mentioned elution gradient and flow rate was tR=21.5 min. […] The following equation was used to determine the amount of AM1 in the supernatants and pellets as a function of the peak area detected by RP-HPLC: Detected peak area/1207925=μg of AM1 peptide.

[2] = Solvent (ethanol/acetone) precipitation of TEVp cleaved Trx-P11-2 homogenate; peptide in supernatants and pellets by HPLC
Method: Homogenate was heat-treated by incubating samples in a water bath at 55° C. for 15 min. The effect on the solubility of the fusion protein was assessed by SDS-PAGE and HPLC analysis of heat-treated homogenate before and after centrifugation (10000×g, 10 min). The effect on the stability of the P11-2 peptide was analyzed by comparing cleavage reactions (at 0, 1, 2 and 3 h) with a final substrate concentration of 160 μM Trx-P11-2 and 8 μM TEVp, prepared with heat-treated and non heat-treated homogenate. Conditions were optimized by evaluating reactions prepared with 8 μM TEVp and 160, 240 and 320 μM Trx-P11-2 after 0, 1, 2 and 3 h. The effect of salt on enzyme activity was assessed by analyzing cleavage reactions prepared with 8 μM TEVp and 320 μM Trx-P11-2, that were supplemented with either 50, 150 or 250 mM NaCl. These cleavage reactions were analyzed at 0, 1, 2 and 3 h by SDS-PAGE and HPLC. After 3 h, ethanol was added to a final concentration of 75% (v/v) and samples were incubated at room temperature for 10 min before centrifuging at 10 000×g for 5 min. The supernatants were diluted with water to reduce the percentage of ethanol and analyzed by HPLC.
All precipitation experiments were performed with the same batch of Trx-P11-2, cleaved with a 40:1 (substrate:enzyme) molar ratio, a substrate concentration of 320 μM (5.12 mg ml^−1) and in the presence of 250 mM NaCl. The precipitation samples were centrifuged for 5 min at 10000×g, and the supernatants collected and analyzed by HPLC to quantify the peptide present. The pellets were resuspended in 6 M guanidine hydrochloride to the same volume as the supernatants, and analysed by HPLC. Acetone and ethanol precipitations were performed using HPLC grade ethanol and acetone, which was added to samples to final concentrations of 20, 40, 60, 65, 70, 75, 80, and 85% (v/v) before incubating for 10 min at room temperature and centrifuging for 5 min at 10000×g. The supernatants were collected and dried using an RVC 2-18 speed-vac (Christ, Osterode, Germany), the pellets were air-dried and both were resuspended in 6 M guanidine hydrochloride. The samples were analyzed by HPLC to quantify the peptide and Bradford assay to quantify the total protein remaining. The peptide and protein remaining in the pellets and supernatants were compared to the results obtained for the starting cleavage reactions to determine the percentages of peptide and protein in each fraction.
Reversed-phase HPLC(RP-HPLC) was carried out using an analytical C5 column (Jupiter, 150 mm×4.6 mm, 5μ, 300 Å) (Phenomenex, Torrance, Calif., USA) connected to a LC-10Avp series HPLC system (Shimadzu, Kyoto, Japan) with a mobile phase A, 0.1% (v/v) trifluoroacetic acid (TFA) in water and B, 90% (v/v) acetonitrile, 0.1% (v/v) TFA in water. Initial analysis of fusion protein and cleavage was performed using a linear gradient from 10% B to 60% B in 50 min at a flow rate of 1 ml min^−1. Peptides were analyzed, collected and quantified using a linear gradient from 10% B to 35% B in 25 min. Final peptide preparation was assessed using a linear gradient from 10% B to 90% B in 80 min. All samples were diluted 1:2 in 6 M guanidine-HCl prior to injection for the purpose of column preservation unless stated otherwise.

[3] = Stability of peptide and fusion protein in cell homogenate (TEVp cleavage reactions, HPLC/SDS-PAGE); conditions: homogenate without heat-treatment; degradation most likely by cellular proteases
Method: All cleavage reactions were performed with recombinant TEVp, using homogenate prepared as above, where the Trx-P11-2 content had been HPLC quantified. Cleavage reactions were performed in TEVp reaction buffer, at room temperature, in sealed tubes that had been purged of air with nitrogen. All reactions were stopped by the addition of equal volumes of either 6 M guanidine hydrochloride or 2×SDS-PAGE sample buffer and analyzed by HPLC (to quantify peptide generation) and SDS-PAGE (to confirm cleavage of the fusion protein), respectively.
Homogenate was heat-treated by incubating samples in a water bath at 55° C. for 15 min. […] The effect on the stability of the P11-2 peptide was analyzed by comparing cleavage reactions (at 0, 1, 2 and 3 h) with a final substrate concentration of 160 μM Trx-P11-2 and 8 μM TEVp, prepared with heat-treated and non heat-treated homogenate. […] The effect of salt on enzyme activity was assessed by analyzing cleavage reactions prepared with 8 μM TEVp and 320 μM Trx-P11-2, that were supplemented with either 50, 150 or 250 mM NaCl. These cleavage reactions were analyzed at 0, 1, 2 and 3 h by SDS-PAGE and HPLC. […] The supernatants were diluted with water to reduce the percentage of ethanol and analyzed by HPLC.

[4] = Solvent (ethanol/acetone) precipitation of TEVp cleaved Trx-P11-2 homogenate; peptide in supernatants and pellets by HPLC; remark: listed apart in the source

Substance	percentage of AM1 present in the precipitate ([1]; ethanol 50-75% (v/v), 23° C., 17 h, relative to AM1 in starting material)	peptide in the original lysate recovered from the supernatant ([1]; precipitation at greater than 65% (v/v) ethanol)	yield of peptide in the supernatant after precipitation ([2]; 50 mM NaCl, 75% (v/v) ethanol)	yield of peptide in the supernatant after precipitation ([2]; 150 mM NaCl, 75% (v/v) ethanol)	yield of peptide in the supernatant after precipitation ([2]; 250 mM NaCl, 75% (v/v) ethanol)	peptide losses on acetone precipitation ([2]; 75% (v/v) acetone, 250 mM salt)	peptide yield on ethanol precipitation ([2]; 75% (v/v) ethanol, 250 mM salt)	solubility of peptide in acetone ([2]; 85% (v/v) acetone, 250 mM salt)	losses of peptide on ethanol precipitation ([2]; 85% (v/v) ethanol, 250 mM salt)	yield of peptide after removal of contaminating proteins with solvent precipitation ([2]; finalized process, 1 L culture, 75% (v/v) ethanol, 250 mM NaCl)	losses of peptide on precipitation ([2]; room temperature, 70-75% (v/v) ethanol or acetone, 250 mM salt)	stability in homogenate [3]	solubility of purified peptide at high solvent concentrations ([4]; purified peptide, results not shown)	behaviour of peptide on solvent precipitation without salt ([4]; standard TEVp reaction buffer (10 mM Tris-Cl, 0.5 mM EDTA, 5 mM DTT, pH 8.0), in homogenate)
Ac-MKQLADSLHQLARQVRSLEHA-CONH2 (Ac-MKQLADSLHQLARQVRSLEHA-NH2) [AM1]	approximately 5%	Over 80%												
QQRFQWQFEQQ [P11-2]			55%	81%	95%	exceeding 30%	over 90%	almost completely insoluble	> 70%	95%	< 5%	quickly degraded	soluble	co-precipitated with the contaminating proteins
